B1: Cryptic beta-glucoside bgl operon antiterminator (Escherichia coli (strain K12)), P11989 (parent)
chain: MNMQITKILNNNVVVVIDDQQREKVVMGRGIGFQKRAGERINSSGIEKEYALSSHELNGRLSELLSHIPLEVMATCDRIISLAQERLGKLQDSIYISLTDHCQFAIKRFQQNVLLPNPLLWDIQRLYPKEFQLGEEALTIIDKRLGVQLPKDEVGFIAMHLVSAQMSGNMEDVAGVTQLMREMLQLIKFQFSLNYQEESLSYQRLVTHLKFLSWRILEHASINDSDESLQQAVKQNYPQAWQCAERIAIFIGLQYQRKISPAEIMFLAINIERVRKEH

Variants of: B1
Conditions: with pthp_ecoli ptsH

| effect of a mutation on the interaction | Variant |
| --- | --- |
| increasing interaction | D100N |

Variants of: B1
Conditions: with pthp_ecoli ptsH
Remark: another data set of the same source

| effect of a mutation on the interaction | Variant |
| --- | --- |
| increasing interaction | H160Y |

Variants of: B1
Conditions: with pthp_ecoli ptsH
Remark: another data set of the same source

| effect of a mutation on the interaction | Variant |
| --- | --- |
| increasing interaction | H208R |

Variants of: B1
Conditions: with pt1_ecoli ptsI

| effect of a mutation on the interaction | Variant |
| --- | --- |
| increasing interaction | H208R |

Variants of: B1
Conditions: with pt1_ecoli ptsI
Remark: another data set of the same source

| effect of a mutation on the interaction | Variant |
| --- | --- |
| decreasing interaction | H208R |

Source: IntAct's records for PubMed 20924357
